Biological target: C3aR1 (C3a receptor) on mouse pancreatic islet cells (mouse) (UniProt O09047)
Assay: cell-based or functional assay

Chain of C3aR1 (C3a receptor) on mouse pancreatic islet cells (mouse) (O09047 whole entry): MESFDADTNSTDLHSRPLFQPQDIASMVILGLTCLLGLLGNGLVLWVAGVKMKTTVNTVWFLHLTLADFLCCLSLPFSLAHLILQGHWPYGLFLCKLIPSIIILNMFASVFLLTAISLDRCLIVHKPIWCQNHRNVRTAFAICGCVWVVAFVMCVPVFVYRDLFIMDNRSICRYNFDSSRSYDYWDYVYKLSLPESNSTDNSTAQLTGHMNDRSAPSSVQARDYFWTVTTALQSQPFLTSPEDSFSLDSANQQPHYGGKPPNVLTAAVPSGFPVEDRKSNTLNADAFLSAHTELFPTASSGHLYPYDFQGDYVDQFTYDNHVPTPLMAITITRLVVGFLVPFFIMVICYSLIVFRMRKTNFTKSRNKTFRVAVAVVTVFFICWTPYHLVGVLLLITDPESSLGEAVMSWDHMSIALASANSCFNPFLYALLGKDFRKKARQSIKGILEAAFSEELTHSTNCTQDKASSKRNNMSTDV

Recombinant C3a protein (ligand)
glucose-stimulated insulin secretion assay on isolated murine islets (enhancement of insulin secretion at high glucose): 30 to 40%

Source: patent US20170072028A1
